Results published in patent publication US20240287172A1 (SCIRHOM, published 2024).

How the values were obtained:
Experiment in all cases: FACS, MEF-DKO cells, 3 µg/ml
hiR2-FL-T522V-T7 = target: T1, hiR2-FL-T522V-T7 (human, UniProt Q6PJF5 1-856)
T1 sequence: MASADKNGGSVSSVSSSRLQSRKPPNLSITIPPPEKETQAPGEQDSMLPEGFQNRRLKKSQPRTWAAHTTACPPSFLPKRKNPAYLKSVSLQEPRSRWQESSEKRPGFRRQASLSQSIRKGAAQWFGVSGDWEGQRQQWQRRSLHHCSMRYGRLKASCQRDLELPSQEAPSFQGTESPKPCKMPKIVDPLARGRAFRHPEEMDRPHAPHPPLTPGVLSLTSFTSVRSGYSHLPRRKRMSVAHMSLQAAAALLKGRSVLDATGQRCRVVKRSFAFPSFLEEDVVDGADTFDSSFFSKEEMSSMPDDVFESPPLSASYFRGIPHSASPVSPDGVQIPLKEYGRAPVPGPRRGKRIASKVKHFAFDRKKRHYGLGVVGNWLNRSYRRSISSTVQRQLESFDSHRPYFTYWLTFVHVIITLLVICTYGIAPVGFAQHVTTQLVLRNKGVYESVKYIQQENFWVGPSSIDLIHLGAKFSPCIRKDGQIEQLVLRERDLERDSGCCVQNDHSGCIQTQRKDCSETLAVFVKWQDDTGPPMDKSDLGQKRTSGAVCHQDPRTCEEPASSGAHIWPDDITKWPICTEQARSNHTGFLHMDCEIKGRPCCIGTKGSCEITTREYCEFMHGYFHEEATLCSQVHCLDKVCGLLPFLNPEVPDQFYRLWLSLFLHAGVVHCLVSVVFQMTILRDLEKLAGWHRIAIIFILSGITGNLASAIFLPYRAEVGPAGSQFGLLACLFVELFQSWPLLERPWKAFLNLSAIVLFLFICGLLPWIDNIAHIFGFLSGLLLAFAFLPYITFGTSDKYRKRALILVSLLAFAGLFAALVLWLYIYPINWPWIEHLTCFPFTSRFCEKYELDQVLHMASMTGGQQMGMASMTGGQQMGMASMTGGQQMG

hiR2-FL-D528I-T7 = target: T2, hiR2-FL-D528I-T7 (human, UniProt Q6PJF5 1-856)
T2 sequence: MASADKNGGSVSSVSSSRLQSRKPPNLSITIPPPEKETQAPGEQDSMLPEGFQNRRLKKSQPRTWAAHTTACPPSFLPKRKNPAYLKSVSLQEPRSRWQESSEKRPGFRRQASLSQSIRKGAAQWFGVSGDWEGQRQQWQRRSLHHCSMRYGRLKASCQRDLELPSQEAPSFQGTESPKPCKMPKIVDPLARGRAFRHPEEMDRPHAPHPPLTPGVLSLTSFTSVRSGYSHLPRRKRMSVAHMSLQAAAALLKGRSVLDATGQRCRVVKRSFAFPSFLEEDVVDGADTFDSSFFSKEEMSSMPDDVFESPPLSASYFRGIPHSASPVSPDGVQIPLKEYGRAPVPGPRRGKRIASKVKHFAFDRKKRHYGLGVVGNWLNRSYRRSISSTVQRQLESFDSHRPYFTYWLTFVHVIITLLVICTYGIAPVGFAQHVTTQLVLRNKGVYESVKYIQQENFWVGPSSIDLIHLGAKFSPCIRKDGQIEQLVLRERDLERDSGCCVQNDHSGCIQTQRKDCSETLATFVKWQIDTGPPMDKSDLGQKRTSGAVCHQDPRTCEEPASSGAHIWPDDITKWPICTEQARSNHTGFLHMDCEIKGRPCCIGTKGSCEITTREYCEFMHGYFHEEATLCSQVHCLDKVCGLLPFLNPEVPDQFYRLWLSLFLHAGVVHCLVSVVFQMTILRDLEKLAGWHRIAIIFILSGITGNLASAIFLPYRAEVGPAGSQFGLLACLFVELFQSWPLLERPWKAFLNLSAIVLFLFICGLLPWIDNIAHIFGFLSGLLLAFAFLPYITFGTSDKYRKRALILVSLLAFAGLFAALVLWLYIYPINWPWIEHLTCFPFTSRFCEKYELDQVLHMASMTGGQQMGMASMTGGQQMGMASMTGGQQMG

hiR2-FL-G531S-T7 = target: T3, hiR2-FL-G531S-T7 (human, UniProt Q6PJF5 1-856)
T3 sequence: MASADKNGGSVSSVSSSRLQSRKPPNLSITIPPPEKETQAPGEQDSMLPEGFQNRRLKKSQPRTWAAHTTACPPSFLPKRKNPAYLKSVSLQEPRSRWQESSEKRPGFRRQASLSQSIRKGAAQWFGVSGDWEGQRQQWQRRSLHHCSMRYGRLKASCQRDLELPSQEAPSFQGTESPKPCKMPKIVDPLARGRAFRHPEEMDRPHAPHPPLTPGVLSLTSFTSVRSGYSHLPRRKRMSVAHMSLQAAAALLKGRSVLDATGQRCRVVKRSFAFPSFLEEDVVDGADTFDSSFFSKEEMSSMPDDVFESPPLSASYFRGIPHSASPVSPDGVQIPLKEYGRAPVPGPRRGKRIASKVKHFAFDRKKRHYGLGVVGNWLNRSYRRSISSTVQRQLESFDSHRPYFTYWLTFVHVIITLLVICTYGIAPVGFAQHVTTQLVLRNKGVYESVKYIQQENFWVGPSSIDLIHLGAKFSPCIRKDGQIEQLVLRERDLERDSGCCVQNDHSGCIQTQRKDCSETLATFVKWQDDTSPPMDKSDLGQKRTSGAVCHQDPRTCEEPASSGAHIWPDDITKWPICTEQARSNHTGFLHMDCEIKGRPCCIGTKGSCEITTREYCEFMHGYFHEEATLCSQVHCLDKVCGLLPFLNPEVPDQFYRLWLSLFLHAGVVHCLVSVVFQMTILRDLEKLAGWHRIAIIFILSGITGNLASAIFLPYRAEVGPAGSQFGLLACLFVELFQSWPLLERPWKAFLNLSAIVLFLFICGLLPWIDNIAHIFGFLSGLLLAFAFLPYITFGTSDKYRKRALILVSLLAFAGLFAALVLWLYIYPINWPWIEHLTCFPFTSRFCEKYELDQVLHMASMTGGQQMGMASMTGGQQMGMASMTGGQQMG

Measured: loss of binding vs wild type

B1: antibody 48 (antibody, V domains shown)
VH: QVQLQQSGTELVRPGTSVKVSCKASGYAFTNYLIEWVKQRPGQGLEWIGVINPGSGFTKYNEKFKGKATLTADKSSSTVYMHLSSLTSEDSAVYFCARGLYRAMDYWGQGTSVTVSS
VL: DIQMTQSPASQSASLGESVTITCLASQTIATWLAWYQQKPGKSPQLLIYGATTLADGVPSRFSGGGSGTKFSFKISSLQAEDFVSYYCQQLYSTPYTFGGGTKLEIK
notes: mouse IgG, kappa light chain; also called clone #48; purified antibody 48
≥ 30%: all assays above

B2: antibody 50 (antibody, V domains shown)
VH: QVQLQQSGAELVRPGASVKVSCKASGYAFSNYLIEWVKQRPGQGLEWIGVINPGSGFTKYNEKFKGKATLTADKSSSTAYMQLSSLTSEDSAVYFCARGLYRAMDYWGQGTSVTVSS
VL: DIQMTQSPASQSASLGESVTITCLASQTIGTWLAWYQQKPGKSPQLLIYAAASLADGVPSRFSGGGSGTKFSFKISSLQAEDFVNYYCQQIYSTPYTFGGGTKLEIK
notes: mouse IgG, kappa light chain; also called clone #50; purified antibody 50
≥ 30%: all assays above
